Source: patent US20260273042A1

Columns and labels:
[1] = molecular target: BG505_SOSIP_D664_olio6_mC (HIV (strain BG505)); assay: SPR (ligand and analyte not given)
[2] = molecular target: BG505 MD37; assay: SPR (ligand and analyte not given)
[3] = molecular target: BG505 MD39C; assay: SPR (ligand and analyte not given)
[4] = molecular target: BG505_SOSIP_D664_MD39_mC (BG505 SOSIP-MD39 or MD39) (HIV (strain BG505)); assay: SPR (ligand and analyte not given)
[5] = molecular target: BG505_SOSIP_D664_olio6_mC (HIV (strain BG505)); assay: SPR, trimer ligand, Fab analyte [panel A]
[6] = molecular target: BG505_SOSIP_D664_MD39_mC (BG505 SOSIP-MD39 or MD39) (HIV (strain BG505)); assay: SPR, trimer ligand, Fab analyte [panel A]
[7] = molecular target: CD4 on human CD4+ T cells (human) (UniProt P01730); assay: flow cytometry, human CD4+ T cells stained with trimer labelled with two fluorescent probes
[8] = molecular target: BG505 MD53; assay: SPR (ligand and analyte not given)
[9] = molecular target: BG505 SOSIP T332N gp140 (soluble trimer) (HIV (strain BG505)); assay: SPR (ligand and analyte not given)
[10] = molecular target: BG505 SOSIP T332N gp140 (soluble trimer) (HIV (strain BG505)); assay: SPR, IgG ligand, trimer analyte [panel A]
[11] = molecular target: BG505_SOSIP_D664_MD39_mC (BG505 SOSIP-MD39 or MD39) (HIV (strain BG505)); assay: SPR, IgG ligand, trimer analyte [panel A]
[12] = molecular target: BG505 SOSIP T332N gp140 (soluble trimer) (HIV (strain BG505)); assay: SPR, IgG ligand, trimer analyte [panel A]; remark: listed apart in the source
[13] = molecular target: BG505_SOSIP.D664_JS_5mut_mC (SOSIP-5MUT) (HIV (strain BG505)); assay: SPR, IgG ligand, trimer analyte [panel A]
[14] = molecular target: BG505_SOSIP.D664_JS_3mut_mC (SOSIP-3MUT) (HIV (strain BG505)); assay: SPR, IgG ligand, trimer analyte [panel A]
[15] = molecular target: MD39-10MUT; assay: SPR, IgG ligand, trimer analyte [panel A]
[16] = molecular target: BG505_SOSIP.D664_JS_10mut_mC (SOSIP-10MUT) (HIV (strain BG505)); assay: SPR, IgG ligand, trimer analyte [panel A]
[17] = molecular target: BG505 SOSIP T332N gp140 (soluble trimer) (HIV (strain BG505)); assay: ELISA, His-tagged trimer captured, mAb titrated [panel B]
[18] = molecular target: BG505_SOSIP_D664_MD39_mC (BG505 SOSIP-MD39 or MD39) (HIV (strain BG505)); assay: as above
[19] = molecular target: BG505_SOSIP.D664_JS_10mut_mC (SOSIP-10MUT) (HIV (strain BG505)); assay: as above
[20] = molecular target: BG505 SOSIP T332N gp140 (soluble trimer) (HIV (strain BG505)); assay: SPR, monovalent interaction
[21] = molecular target: BG505_SOSIP_D664_MD39_mC (BG505 SOSIP-MD39 or MD39) (HIV (strain BG505)); assay: SPR, monovalent interaction
[22] = molecular target: BG505-gp120 9MUTB (7MUT+N135R/Q328M) (HIV (strain BG505)); assay: SPR, monomeric gp120
[23] = molecular target: BG505_SOSIP_MD39_2JD6 (HIV (strain BG505) fused to Pyrococcus furiosus ferritin); assay: SPR, captured particle, Fab analyte
[24] = molecular target: BG505 SOSIP MD39 E2p (HIV (strain BG505) fused to Bacillus stearothermophilus E2p); assay: SPR, captured particle, Fab analyte
[25] = molecular target: BG505 SOSIP T332N gp140 (soluble trimer) (HIV (strain BG505)); assay: SPR, trimer ligand, Fab analyte [panel A]
[26] = molecular target: BG505_SOSIP.D664_JS_5mut_mC (SOSIP-5MUT) (HIV (strain BG505)); assay: SPR, trimer ligand, Fab analyte [panel A]
[27] = molecular target: BG505_SOSIP.D664_JS_3mut_mC (SOSIP-3MUT) (HIV (strain BG505)); assay: SPR, trimer ligand, Fab analyte [panel A]
[28] = molecular target: MD39-10MUT; assay: SPR, trimer ligand, Fab analyte [panel A]
[29] = molecular target: BG505_SOSIP_D664_MD39_mC (BG505 SOSIP-MD39 or MD39) (HIV (strain BG505)); assay: SPR, trimer ligand, Fab analyte [panel A]; remark: listed apart in the source
[30] = molecular target: BG505_SOSIP.D664_JS_10mut_mC (SOSIP-10MUT) (HIV (strain BG505)); assay: SPR, trimer ligand, Fab analyte [panel A]
[31] = molecular target: BG505_SOSIP_D664_olio6_mC (HIV (strain BG505)); assay: SPR, IgG ligand, trimer analyte [panel A]
[32] = molecular target: BG505_MD39_CP1.2_GRSF7_qLoops1 (HIV (strain BG505)); assay: SPR, Fab analyte
[33] = molecular target: BG505_SOSIP.D664_JS_3mut_mC (SOSIP-3MUT) (HIV (strain BG505)); assay: SPR, trimer ligand, Fab analyte (1-to-1 fit relatively poor) [panel A]
[34] = molecular target: BG505_SOSIP_D664_MD39_mC (BG505 SOSIP-MD39 or MD39) (HIV (strain BG505)); assay: as above
[35] = molecular target: BG505_SOSIP.D664_JS_10mut_mC (SOSIP-10MUT) (HIV (strain BG505)); assay: as above

With 3BNC60 (antibody) as the substance, how does the Kd [1] read?
The Kd was 119 nM.

What about the Kd [2] of the same substance?
The Kd was 189 nM.

What about the Kd [3] of the same substance?
Its Kd is 144 nM.

What about the Kd [4] of the same substance?
The Kd was 121 nM.

For 3BNC60 Fab, which Kd [5] is on record?
The Kd was 119 nM.

What about the Kd [6] of the same substance?
The Kd was 189 nM.

“BG505 SOSIP T332N gp140 (soluble trimer) (other; other documents disagree on this pair)” was tested. Which percentage of cells in the double-positive population [7] did it give?
The percentage of cells in the double-positive population was 99.1%.

Which results are given for PGDM1400 (antibody)?
Kd [8]: 11 nM; Kd [9]: 6 nM; Kd [4]: 12 nM; Kd [10]: 6 nM; Kd [11]: 12 nM; Kd [12]: 2 nM; Kd [13]: 1 nM; Kd [14]: 1 nM; Kd [15]: 6 nM; Kd [16]: 1 nM; EC50 (read off the curve) [17]: 0.04 µg/mL; EC50 (read off the curve) [18]: 0.04 µg/mL; EC50 (read off the curve) [19]: 0.04 µg/mL; Kd [20]: 5 nM; Kd [21]: 36 nM

How did the Kd [22] turn out when PGT121 (antibody) was run?
Its Kd is 1.5 nM.

What does the source list for PGT128 (antibody)?
Kd [1]: 11 nM; Kd [2]: 19 nM; Kd [3]: 14 nM; Kd [20]: 8 nM; Kd [21]: 12 nM

Which Kd [23] does the source give for PGT128 Fab here?
The Kd was 5 nM.

What about the Kd [24] of the same substance?
Its Kd is 6 nM.

What about the Kd [6] of the same substance?
The Kd was 11 nM.

And the Kd [25]?
The Kd was 8 nM.

What about the Kd [26] of the same substance?
The Kd was 5 nM.

What about the Kd [27] of the same substance?
The Kd was 3 nM.

And the Kd [28]?
The Kd was 3 nM.

And the Kd [29]?
The Kd was 12 nM.

And the Kd [30]?
Its Kd is 3 nM.

What does the source list for PGT145 (antibody)?
Kd [1]: 31 nM; Kd [4]: 20 nM; Kd [31]: 31 nM; Kd [11]: 20 nM; Kd [13]: 3 nM; Kd [14]: 3 nM; Kd [16]: 3 nM; Kd [21]: 60 nM

How did the Kd [23] turn out when PGT145-Fab was run?
The Kd was 49 nM.

And the Kd [24]?
Its Kd is 41 nM.

What about the Kd [32] of the same substance?
The Kd was 26 nM.

What does the source list for PGT151 (antibody)?
Kd [4]: 11 nM; EC50 (read off the curve) [18]: 0.03 µg/mL; EC50 (read off the curve) [19]: 0.03 µg/mL; Kd [21]: 11 nM

PGT151 Fab was tested. Which Kd [23] did it give?
Its Kd is 49 nM.

And the Kd [24]?
The Kd was 25 nM.

And the Kd [6]?
The Kd was 11 nM.

And the Kd [33]?
Its Kd is 9 nM.

What about the Kd [34] of the same substance?
The Kd was 11 nM.

What about the Kd [35] of the same substance?
The Kd was 20 nM.

For VRC01 (antibody), which Kd [4] is on record?
Its Kd is 124 nM.

And the Kd [21]?
Its Kd is 124 nM.

How did the Kd [23] turn out when VRC01-Fab was run?
The Kd was < 1 nM.

What about the Kd [24] of the same substance?
Its Kd is < 1 nM.

And the Kd [6]?
The Kd was 124 nM.

What about the Kd [26] of the same substance?
Its Kd is 195 nM.

And the Kd [27]?
Its Kd is 101 nM.

And the Kd [28]?
Its Kd is 142 nM.

And the Kd [30]?
Its Kd is 115 nM.
